Experimental data as given in paper PMC12647877, “The SMC Hinge is a Selective Gate for Obstacle Bypass” (Nature Communications, 2025).

Columns and labels:
[1] = target: T1, scSmc4(598-923) condensin hinge/coiled coil with V721C and M821C (S. cerevisiae, UniProt Q12267 598-923, V721C | M821C); test: cross-linking; cysteine cross-linking with BMOE (0.58 mM, 6 min on ice) of purified scSmc2/4 hinge, 1.4 µM in CB buffer (50 mM NaCl, 1 mM MgCl2, 50 mM HEPES pH 7.5, 1 mM TCEP, 5 % glycerol); SDS-PAGE; settings: both partners purified
T1 construct: Smc4, S. cerevisiae condensin, residues 598-923; also called scSmc4 hinge; source: Sf9, co-purified with scSmc2 hinge (Strep-Tactin XT, cation exchange, SEC)
T1 sequence (looked up): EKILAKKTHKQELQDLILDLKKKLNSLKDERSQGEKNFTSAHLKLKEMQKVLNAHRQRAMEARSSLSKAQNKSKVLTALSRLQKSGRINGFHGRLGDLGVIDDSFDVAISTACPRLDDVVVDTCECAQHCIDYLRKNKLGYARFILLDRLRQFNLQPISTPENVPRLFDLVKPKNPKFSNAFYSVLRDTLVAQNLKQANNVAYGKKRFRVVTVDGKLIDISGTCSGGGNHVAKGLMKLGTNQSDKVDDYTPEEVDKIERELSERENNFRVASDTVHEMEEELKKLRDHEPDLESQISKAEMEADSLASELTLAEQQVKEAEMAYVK

[2] = target: the molecule itself; test: cross-linking; cysteine cross-linking with BMOE (1 mM, 45 s, quenched with DTT) of purified hinge/coiled coil constructs in 20 mM Tris-HCl, 50 mM NaCl; SDS-PAGE, and denaturing agarose gels of entrapped ssDNA circles

B1: scSmc2(443-740) condensin hinge/coiled coil with S560C and K639C (domain or fragment, S. cerevisiae, UniProt P38989 443-740, looked up)
chain: KDNELNVKHVKQCQETCDKLRARLVEYGFDPSRIKDLKQREDKLKSHYYQTCKNSEYLKRRVTNLEFNYTKPYPNFEASFVHGVVGQLFQIDNDNIRYATALQTCAGGRLFNVVVQDCQTATQLLERGRLRKRVTIIPLDKIYTRPISSQVLDLAKKIAPGKVELAINLIRFDESITKAMEFIFGNSLICEDPETACKITFHPKIRARSITLQGDVYDPEGTLSGGSRNTSESLLVDIQKYNQIQKQIETIQADLNHVTEELQTQYATSQKTKTIQSDLNLSLHKLDLAKRNLDANPS
notes: Smc2, S. cerevisiae condensin, residues 443-740; also called scSmc2 hinge; source: Sf9, co-purified with scSmc4 hinge (Strep-Tactin XT, cation exchange, SEC)
Q: Does B1 bind [1]?
A: binds

B2: bsuSmc(400-776; C437S, R558C, N634C) hinge/coiled coil (domain or fragment, B. subtilis, UniProt P51834 400-776, looked up)
chain: QLLDDQMSQSAVTLQRLADNNEKHLQERHDISARKAASETEFARIEQEIHSQVGAYRDMQTKYEQKKRQYEKNESALYQAYQYVQQARSKKDMLETMQGDFSGFYQGVKEVLKAKERLGGIRGAVLELISTEQKYETAIEIALGASAQHVVTDDEQSACKAIQYLKQNSFGRATFLPLSVIRDRQLQSRDAETAARHSSFLGVASELVTFDPAYRSVIQNLLGTVLITEDLKGACELAKLLGHRYRIVTLEGDVVNPGGSMTGGAVKKKNNSLLGRSRELEDVTKRLAEMEEKTALLEQEVKTLKHSIQDMEKKLADLRETGEGLRLKQQDVKGQLYELQVAEKNINTHLELYDQEKSALSESDEERKVRKRKLEEE
notes: Smc (chromosome partition protein Smc), Bacillus subtilis, residues 400-776; also called bsuSmc hinge; B. subtilis Smc hinge; source: E. coli BL21(DE3) Gold, purified (as the scSmc5/6 hinge constructs: HisTrap, SEC)
Q: Does B2 bind [2]?
A: binds
